Test results: publication PMC10746542 (Nature chemical biology, 2023)
Each block holds one binder with its values, some of them ahead of it.

Legend:
VH27.2-Fc W104F = assay: BLI; biotinylated ENPP1-Fc antigen loaded on streptavidin biosensors, blocked with 5 uM biotin; binder in solution, 600 s association, 900 s dissociation; TBS, 0.02% TWEEN-20, 0.2% BSA, 200 uM zinc chloride, 2 mM calcium chloride, 75 mM sodium chloride; 1:1 monovalent binding model; conditions: both partners purified
VH27/T75I/A89V-Fc = assay: as above; conditions: both partners purified
VH27.2-Fc Y102A = assay: as above; conditions: both partners purified
[1] = molecular target: bi-paratopic VH27.2/VH31 inhibitor (tetravalent Fc); assay: flow cytometry on cells; MDA-MB-231 cells stained with a titration of binder, 1 hr at 4°C in PBS with 3% BSA; ProtA-647 secondary; EC50 from median fluorescence intensity, sigmoidal 4PL fit; conditions: one partner purified

- Kd (VH27.2-Fc W104F): 14.2 nM
- Kd (VH27/T75I/A89V-Fc): 0.7 nM
- Kd (VH27.2-Fc Y102A): 111 nM
B1: T256A ENPP1-Fc (human ENPP1 ectodomain, ΔSMB, T256A, C-terminal Fc fusion with AviTag, biotinylated) (Fc fusion)
chain: GEKSWVEEPCESINEPQCPAGFETPPTLLFSLDGFRAEYLHTWGGLLPVISKLKKCGTYTKNMRPVYPTKAFPNHYSIVTGLYPESHGIIDNKMYDPKMNASFSLKSKEKFNPEWYKGEPIWVTAKYQGLKSGTFFWPGSDVEINGIFPDIYKMYNGSVPFEERILAVLQWLQLPKDERPHFYTLYLEEPDSSGHSYGPVSSEVIKALQRVDGMVGMLMDGLKELNLHRCLNLILISDHGMEQGSCKKYIYLNKYLGDVKNIKVIYGPAARLRPSDVPDKYYSFNYEGIARNLSCREPNQHFKPYLKHFLPKRLHFAKSDRIEPLTFYLDPQWQLALNPSERKYCGSGFHGSDNVFSNMQALFVGYGPGFKHGIEADTFENIEVYNLMCDLLNLTPAPNNGTHGSLNHLLKNPVYTPKHPKEVHPLVQCPFTRNPRDNLGCSCNPSILPIEDFQTQFNLTVAEEKIIKHETLPYGRPRVLQKENTICLLSQHQFMSGYSQDILMPLWTSYTVDRNDSFSTEDFSNCLYQDFRIPLSPVHKCSFYKNNTKVSYGFLSPPQLNKNSSGIYSEALLTTNIVPMYQSFQVIWRYFHDTLLRKYAEERNGVNVVSGPVFDFDYDGRCDSLENLRQKRRVIRNQEILIPTHFFIVLTSCKDTSQTPLHCENLDTLAFILPHRTDNSESCVHGKHDSSWVEELLMLHRARITDVEHITGLSFYQQRKEPVSDILKLKTHLPTFSQED
modifications: biotin on the AviTag

- binding result [1]: binds
B2: native ENPP1 on the cell membrane (natural protein, UniProt P22413 1-925, looked up)
chain: MERDGCAGGGSRGGEGGRAPREGPAGNGRDRGRSHAAEAPGDPQAAASLLAPMDVGEEPLEKAARARTAKDPNTYKVLSLVLSVCVLTTILGCIFGLKPSCAKEVKSCKGRCFERTFGNCRCDAACVELGNCCLDYQETCIEPEHIWTCNKFRCGEKRLTRSLCACSDDCKDKGDCCINYSSVCQGEKSWVEEPCESINEPQCPAGFETPPTLLFSLDGFRAEYLHTWGGLLPVISKLKKCGTYTKNMRPVYPTKTFPNHYSIVTGLYPESHGIIDNKMYDPKMNASFSLKSKEKFNPEWYKGEPIWVTAKYQGLKSGTFFWPGSDVEINGIFPDIYKMYNGSVPFEERILAVLQWLQLPKDERPHFYTLYLEEPDSSGHSYGPVSSEVIKALQRVDGMVGMLMDGLKELNLHRCLNLILISDHGMEQGSCKKYIYLNKYLGDVKNIKVIYGPAARLRPSDVPDKYYSFNYEGIARNLSCREPNQHFKPYLKHFLPKRLHFAKSDRIEPLTFYLDPQWQLALNPSERKYCGSGFHGSDNVFSNMQALFVGYGPGFKHGIEADTFENIEVYNLMCDLLNLTPAPNNGTHGSLNHLLKNPVYTPKHPKEVHPLVQCPFTRNPRDNLGCSCNPSILPIEDFQTQFNLTVAEEKIIKHETLPYGRPRVLQKENTICLLSQHQFMSGYSQDILMPLWTSYTVDRNDSFSTEDFSNCLYQDFRIPLSPVHKCSFYKNNTKVSYGFLSPPQLNKNSSGIYSEALLTTNIVPMYQSFQVIWRYFHDTLLRKYAEERNGVNVVSGPVFDFDYDGRCDSLENLRQKRRVIRNQEILIPTHFFIVLTSCKDTSQTPLHCENLDTLAFILPHRTDNSESCVHGKHDSSWVEELLMLHRARITDVEHITGLSFYQQRKEPVSDILKLKTHLPTFSQED
